# Laboratory results published in IntAct's records for PubMed 16286470.
# B1: Dual specificity protein phosphatase 1 (Homo sapiens), P28562 (parent)
# chain: MVMEVGTLDAGGLRALLGERAAQCLLLDCRSFFAFNAGHIAGSVNVRFSTIVRRRAKGAMGLEHIVPNAELRGRLLAGAYHAVVLLDERSAALDGAKRDGTLALAAGALCREARAAQVFFLKGGYEAFSASCPELCSKQSTPMGLSLPLSTSVPDSAESGCSSCSTPLYDQGGPVEILPFLYLGSAYHASRKDMLDALGITALINVSANCPNHFEGHYQYKSIPVEDNHKADISSWFNEAIDFIDSIKNAGGRVFVHCQAGISRSATICLAYLMRTNRVKLDEAFEFVKQRRSIISPNFSFMGQLLQFESQVLAPHCSAEAGSPAMAVLDRGTSTTTVFNFPVSIPVHSTNSALSYLQSPITTSPSC
# Variants of: B1
# Conditions: with ubb_human UBB
row,Variant,effect of a mutation on the interaction
1,S296A,decreasing interaction
2,S323A,decreasing interaction
3,F339A;F341A,decreasing interaction

# Variants of: B1
# Conditions: with skp2_human SKP2, Q13309
# Sequence of skp2_human SKP2, Q13309 (Q13309 whole entry): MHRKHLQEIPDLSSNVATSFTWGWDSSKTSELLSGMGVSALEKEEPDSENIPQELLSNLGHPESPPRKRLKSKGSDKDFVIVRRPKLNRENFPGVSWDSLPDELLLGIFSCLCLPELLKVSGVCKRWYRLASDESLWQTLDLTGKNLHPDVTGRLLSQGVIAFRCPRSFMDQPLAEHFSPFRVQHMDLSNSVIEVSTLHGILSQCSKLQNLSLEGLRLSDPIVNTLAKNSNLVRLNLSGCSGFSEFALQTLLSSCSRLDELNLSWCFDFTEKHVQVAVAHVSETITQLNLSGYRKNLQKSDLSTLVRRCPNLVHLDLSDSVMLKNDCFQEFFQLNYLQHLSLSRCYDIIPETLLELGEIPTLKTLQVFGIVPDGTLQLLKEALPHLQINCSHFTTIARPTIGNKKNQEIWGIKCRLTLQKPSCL
row,Variant,effect of a mutation on the interaction
1,S296A,decreasing interaction
